B1: HYBN-SV: hypoxia-inducible promoter, SEQ ID NO: 145; 6 HRE3 elements, SV40 (nucleic acid)
DNA: AATAAAATATCTTTATTTTCATTACATCTGTGTGTTGGTTTTTTGTGTGACCTTGAGTACGTGCGTCTCTGCACGTATGGATAAACCTTGAGTACGTGCGTCTCTGCACGTATGTGCGTACCTTGAGTACGTGCGTCTCTGCACGTATGGATAAACCTTGAGTACGTGCGTCTCTGCACGTATGTGCGTACCTTGAGTACGTGCGTCTCTGCACGTATGGATAAACCTTGAGTACGTGCGTCTCTGCACGTATGTGCATCTCAATTAGTCAGCAACCATAGTCCCGCCCCTAACTCCGCCCATCCCGCCCCTAACTCCGCCCAGTTCCGCCCATTCTCCGCCCCATCGCTGACTAATTTTTTTTATTTATGCAGAGGCCGAGGCCGCCTCGGCCTCTGAGCTATTCCAGAAGTAGTGAGGAGGCTTTTTTGGAGGCCTAGGCTTTTGCAAAAAGCTT
modifications: Synp-HYBNSV
notes: 6 HRE3 elements, SV40
B2: HYBN-YB: hypoxia-inducible promoter, SEQ ID NO: 140; 6 HRE3 elements spaced by 5 bp spacers, YB-TATA (nucleic acid)
DNA: AATAAAATATCTTTATTTTCATTACATCTGTGTGTTGGTTTTTTGTGTGACCTTGAGTACGTGCGTCTCTGCACGTATGGATAAACCTTGAGTACGTGCGTCTCTGCACGTATGTGCGTACCTTGAGTACGTGCGTCTCTGCACGTATGGATAAACCTTGAGTACGTGCGTCTCTGCACGTATGTGCGTACCTTGAGTACGTGCGTCTCTGCACGTATGGATAAACCTTGAGTACGTGCGTCTCTGCACGTATGTCTAGAGGGTATATAATGGGGGCCA
modifications: Synp-HYPN
notes: 6 HRE3 elements spaced by 5 bp spacers, YB-TATA
B3: HYBN-C: hypoxia-inducible promoter, SEQ ID NO: 141; 6 HRE3 elements, CMV-MP short (nucleic acid)
DNA: AATAAAATATCTTTATTTTCATTACATCTGTGTGTTGGTTTTTTGTGTGACCTTGAGTACGTGCGTCTCTGCACGTATGGATAAACCTTGAGTACGTGCGTCTCTGCACGTATGTGCGTACCTTGAGTACGTGCGTCTCTGCACGTATGGATAAACCTTGAGTACGTGCGTCTCTGCACGTATGTGCGTACCTTGAGTACGTGCGTCTCTGCACGTATGGATAAACCTTGAGTACGTGCGTCTCTGCACGTATGGCGATTAATCCATATGCGTAGGCGTGTACGGTGGGAGGTCTATATAAGCAGAGCT
modifications: Synp-HYBNC
notes: 6 HRE3 elements, CMV-MP short
B4: HYBN-MLP: hypoxia-inducible promoter, SEQ ID NO: 144; 6 HRE3 elements, MLP (nucleic acid)
DNA: AATAAAATATCTTTATTTTCATTACATCTGTGTGTTGGTTTTTTGTGTGACCTTGAGTACGTGCGTCTCTGCACGTATGGATAAACCTTGAGTACGTGCGTCTCTGCACGTATGTGCGTACCTTGAGTACGTGCGTCTCTGCACGTATGGATAAACCTTGAGTACGTGCGTCTCTGCACGTATGTGCGTACCTTGAGTACGTGCGTCTCTGCACGTATGGATAAACCTTGAGTACGTGCGTCTCTGCACGTATGGGGGGGCTATAAAAGGGGGTGGGGGCGTTCGTCCTCACTCT
modifications: Synp- HYBNMLP
notes: 6 HRE3 elements, MLP
B5: HYBN-pJB42: hypoxia-inducible promoter, SEQ ID NO: 146; 6 HRE3 elements, pJB42 (nucleic acid)
DNA: AATAAAATATCTTTATTTTCATTACATCTGTGTGTTGGTTTTTTGTGTGACCTTGAGTACGTGCGTCTCTGCACGTATGGATAAACCTTGAGTACGTGCGTCTCTGCACGTATGTGCGTACCTTGAGTACGTGCGTCTCTGCACGTATGGATAAACCTTGAGTACGTGCGTCTCTGCACGTATGTGCGTACCTTGAGTACGTGCGTCTCTGCACGTATGGATAAACCTTGAGTACGTGCGTCTCTGCACGTATGCTGACAAATTCAGTATAAAAGCTTGGGGCTGGGGCCGAGCACTGGGGACTTTGAGGGTGGCCAGGCCAGCGTAGGAGGCCAGCGTAGGATCCTGCTGGGAGCGGGGAACTGAGGGAAGCGACGCCGAGAAAGCAGGCGTACCACGGAGGGAGAGAAAAGCTCCGGAAGCCCAGCAGCG
modifications: Synp-HYBNpJB42
notes: 6 HRE3 elements, pJB42
B6: HYBN-C53: hypoxia-inducible promoter, SEQ ID NO: 142; 6 HRE3 elements, CMV53 (nucleic acid)
DNA: AATAAAATATCTTTATTTTCATTACATCTGTGTGTTGGTTTTTTGTGTGACCTTGAGTACGTGCGTCTCTGCACGTATGGATAAACCTTGAGTACGTGCGTCTCTGCACGTATGTGCGTACCTTGAGTACGTGCGTCTCTGCACGTATGGATAAACCTTGAGTACGTGCGTCTCTGCACGTATGTGCGTACCTTGAGTACGTGCGTCTCTGCACGTATGGATAAACCTTGAGTACGTGCGTCTCTGCACGTATGCAACAAAATGTCGTAACAAGGGCGGTAGGCGTGTACGGTGGGAGGTCTATATAAGCAGAGCTCGTTTAGTGAACCG
modifications: Synp-HYBNC53
notes: 6 HRE3 elements, CMV53
B7: HYBN-TATAm6a: hypoxia-inducible promoter, SEQ ID NO: 147; 6 HRE3 elements, TATAm6a (nucleic acid)
DNA: AATAAAATATCTTTATTTTCATTACATCTGTGTGTTGGTTTTTTGTGTGACCTTGAGTACGTGCGTCTCTGCACGTATGGATAAACCTTGAGTACGTGCGTCTCTGCACGTATGTGCGTACCTTGAGTACGTGCGTCTCTGCACGTATGGATAAACCTTGAGTACGTGCGTCTCTGCACGTATGTGCGTACCTTGAGTACGTGCGTCTCTGCACGTATGGATAAACCTTGAGTACGTGCGTCTCTGCACGTATGTATAAAAGGCAGAGCTCGTTTAGTGAACCGAAGCTTGGACTAAAGCGGACTTGTCTCGAG
modifications: Synp-HYBNTATAm6a
notes: 6 HRE3 elements, TATAm6a
B8: HYBN-minTk: hypoxia-inducible promoter, SEQ ID NO: 143; 6 HRE3 elements, MinTK (nucleic acid)
DNA: AATAAAATATCTTTATTTTCATTACATCTGTGTGTTGGTTTTTTGTGTGACCTTGAGTACGTGCGTCTCTGCACGTATGGATAAACCTTGAGTACGTGCGTCTCTGCACGTATGTGCGTACCTTGAGTACGTGCGTCTCTGCACGTATGGATAAACCTTGAGTACGTGCGTCTCTGCACGTATGTGCGTACCTTGAGTACGTGCGTCTCTGCACGTATGGATAAACCTTGAGTACGTGCGTCTCTGCACGTATGTTCGCATATTAAGGTGACGCGTGTGGCCTCGAACACCGAGCGACCCTGCAGCGACCCGCTTAA
modifications: Synp-HYBNMinTK
notes: 6 HRE3 elements, MinTK

Test system: HEK293 cells
Test: Luciferase expression from new HRE3 hypoxia-inducible promoter designs, normoxia vs 24 h hypoxia
Type: cell-based, human
Conditions: HEK293, N=3
Source text: Promoters were designed using HRE3 (SEQ ID NO: 9) described above. The promoters were designed around a base enhancer element: • […]gataa[…] GTATGtgcgt[…]gataaACCTTGAGTACGTGCGT CTCTGCACGTATGtgcgt[…]gataaACCTTGAGT […] (SEQ ID NO: 139) • HRE3 is in capital letters
This enhancer was operably linked with the following minimal promoters, with a 5 bp spacer between the enhancer and the minimal promoter: • YB-Tata (HYPN) • Short CMV (HYBNC) • CMV53 (HYBNC53) • MinTK (HYBNMinTK) • 30 MLP (HYBNMLP) • SV40 (HYBNSV) • pJB42 (HYBNpJB42)
This enhancer was also operably liked with another minimal promoter named TATA-m6A (HYBNTATAm6a): • […]aagcttggactaaagcggacttgtctcgag (SEQ ID NO: 101)
These new designs were transfected in HEK293 cells as described above and the results of their expression in hypoxia and normoxia are shown in FIG. 15.

Molecule | Luciferase activity in normoxia | Luciferase expression after 24 hours in hypoxia (vs normoxia)
B1 | almost no luciferase activity | induced
B2 | almost no luciferase activity | induced
B3 | almost no luciferase activity | induced
B4 | almost no luciferase activity | induced
B5 | almost no luciferase activity | induced
B6 | almost no luciferase activity | induced
B7 | almost no luciferase activity | induced
B8 | almost no luciferase activity | induced
